Reference: US20090104207A1

Biological target: E1s (hepatitis C virus)
Experiment: coating ELISA, E1s at 0.5 µg/ml, hybridoma supernatant

- O.D. (450-595 nm): > 2 O.D.
Substance: 4G2 (antibody)
